From patent publication US20120264815, “REVERSIBLE PLATELET INHIBITION” (DUKE UNIVERSITY, published 2012) come the findings set out here.

The target of data set [1] is T1, glycoprotein IIb/IIIa on activated platelets (Homo sapiens, UniProt P08514;P08514;P05106 P08514:32-887,P08514:891-1039,P05106:27-788). Nature of the data set: filter; apparent Kd on activated platelets, 37 C. The conditions noted are these: label: 5'-32P. As to the method: (§1) In order to correlate the real-time data with binding affinity, purified 11D platelets were isolated and the affinity of each round to activated platelets was measured using nitrocellulose-filter partitioning (Wang et al, Biochemistry 32:1899-1904 (1993)). Since purified gpIIb/IIIa were selected, 80,000 gpIIb/IIIa receptors per platelet were assumed (Tcheng, Am. Heart J. 139:S38-45 (2000)) and the theoretical concentration of the protein was calculated.
(§2) Representative clones from each family were subsequently tested for their ability to bind to purified platelets.

The target in data set [2] is T2, von Willebrand factor (VWF) (Homo sapiens, UniProt P04275 P04275:764-2813). The experiment in a line: filter; nitrocellulose filter binding, 37 C, 2 mM CaCl2. Conditions: tags: Haematologic Technologies Inc. (factor VIII free); label: 5'-32P. As for the experimental part:
(§3) Affinity constants (Kd values) were determined using double-filter nitrocellulose filter binding assays (Rusconi et al, Thromb. Haemost. 84:841-848 (2000)). All binding studies were performed in either binding buffer E (20 mM HEPES, pH 7.4, 50 mM NaCl, 2 mM CaCl₂, and 0.1% BSA) or binding buffer F (20 mM HEPES, pH 7.4, 150 mM NaCl, 2 mM CaCl₂, and 0.1% BSA) at 37° C. Human purified VWF (factor VIII free) was purchased from Haematologic Technologies Inc. (Essex Junction, VT) and used in the double-filter nitrocellulose filter binding assay to determine the Kd of every other round and individual clones. VWF SPI and VWF SPIII domains were kindly provided by Dr. J. Evan Sadler (Washington University in St. Louis). Briefly, RNA were dephosphorylated using bacterial alkaline phosphatase (Gibco BRL, Gaithberg, Md.) and end-labeled at the 5′ end with T4 polynucleotide kinase (New England Biolabs, Beverly, Mass.) and [γ³²P] ATP (Amersham Pharmacia Biotech, Piscataway, N.J.) (Fitzwater and Polisky, Methods Enzymol. 267:275-301 (1996)). Direct binding was performed by incubating ³²P-RNA with VWF in physiological buffer+1 mg/ml BSA at 37° C. for 5 min. The fraction of the nucleic acid-protein complex which bound to the nitrocellulose membrane was quantified with a posphoimager (Molecular Dynamics, Sunnyvale, Calif.).

Data set [3] deals with VWF SPI fragment (V8 protease; C-terminal 455 residues of SPIII) (UniProt P04275 P04275:1674-2128). Nature of the data set: filter; 37 C, 2 mM CaCl2. Conditions: label: 5'-32P. As to the method: as §3
In data set [4] the target is T1, glycoprotein IIb/IIIa on activated …. Nature of the data set: filter; apparent Kd on activated platelets, poorest binder. Conditions: label: 5'-32P. As for the experimental part: as §1, §2
The target in data set [5] is T2, von Willebrand factor (VWF). Nature of the data set: filter; buffer F, 150 mM NaCl, 2 mM CaCl2, 37 C; Bmax 61%. Conditions: tags: Haematologic Technologies Inc. (factor VIII free); label: 5'-32P. As for the experimental part: Dissociation constants (Kd) of each truncate were determined using double-filter nitrocellulose filter binding assays (Pergolizzi et al, Blood 108:862-869 (2006)). All binding studies were performed in binding buffer F (20 mM HEPES, pH 7.4, 150 mM NaCl, 2 mM CaCl₂, and 0.1% BSA) at 37° C. Human purified VWF (with factor VIII and factor VIII free) was purchased from Haematologic Technologies Inc. (Essex Junction, VT) and used in the double-filter nitrocellulose filter binding assay to determine the Kd of individual clones. Briefly, RNA was dephosphorylated using bacterial alkaline phosphatase (Gibco BRL, Gaithberg, Md.) and end-labeled at the 5′ end with T4 polynucleotide kinase (New England Biolabs, Beverly, Mass.) and [γ³²P] ATP (Amersham Pharmacia Biotech, Piscataway, N.J.). Direct binding was performed by incubating ³²P—RNA with VWF in physiological buffer+1 mg/ml BSA at 37° C. for 5 min. The fraction of the nucleic acid-protein complex which bound to the nitrocellulose membrane was quantified with a phosphoimager (Molecular Dynamics, Sunnyvale, Calif.).

B1: C1 (ssRNA)
RNA: GGGAGGACGAUGCGGUAUAGACCACAGCCUGAGUAUUAACCACCAACCCAGGUACUCAGACGACUCGCUGAGGAUCC
modifications: 2'-F pyrimidines
Consider B1, for which the Kd in data set [1] was determined as 6 nM.

B2: VWF R9.14 (ssRNA)
RNA: GGGAGGACGAUGCGGUGGACGAACUGCCCUCAGCUACUUUCAUGUUGCUGACGCACAGACGACUCGCUGAGGAUCCGAGA
modifications: 2'-F pyrimidines
With B2, the Kd in data set [2] was found to be 12 nM. Besides, the binding result in data set [3] is recorded as “no binding”.

B3: C3 (ssRNA)
RNA: GGGAGGACGAUGCGGUGCCACAUGCCUCAGAUACAGCACGCACCUUCGACCUAAUCAGACGACUCGCUGAGGAUCC
modifications: 2'-F pyrimidines
Regarding B3, the Kd in data set [4] was found to be 62 nM.

B4: 9.14 T10 (ssRNA)
RNA: GGGAGGUGGACGAACUGCCCUCAGCUACUUUCAUGUUGCUGACGCACAGACGACUCGCUG
modifications: 2'-F pyrimidines
As for B4, the Kd in data set [5] turned out to be 44 nM.
